This is an account of results in paper PMC4918640.

As a reminder, the Kd is the equilibrium constant for the complex coming apart.

The experiment addresses extracellular domain of PDGFRα-Fc conjugated (human) (UniProt P16234). The experiment is described as follows: SPR + BLI.
Chain of UniProt P16234 (P16234 24-528): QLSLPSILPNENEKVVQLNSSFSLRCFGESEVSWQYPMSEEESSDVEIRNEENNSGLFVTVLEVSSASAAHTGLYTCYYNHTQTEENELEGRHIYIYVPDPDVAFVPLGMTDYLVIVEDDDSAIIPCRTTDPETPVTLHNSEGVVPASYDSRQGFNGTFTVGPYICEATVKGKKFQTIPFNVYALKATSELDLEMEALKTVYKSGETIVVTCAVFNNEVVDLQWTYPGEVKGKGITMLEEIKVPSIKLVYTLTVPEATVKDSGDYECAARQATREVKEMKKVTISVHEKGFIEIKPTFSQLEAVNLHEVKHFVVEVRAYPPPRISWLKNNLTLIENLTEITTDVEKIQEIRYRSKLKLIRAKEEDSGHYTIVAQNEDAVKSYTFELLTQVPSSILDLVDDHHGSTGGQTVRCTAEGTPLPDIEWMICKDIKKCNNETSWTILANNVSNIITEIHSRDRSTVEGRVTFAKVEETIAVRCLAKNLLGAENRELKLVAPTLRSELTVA

Take “soluble gHgLgO trimer (from UniProt P16832;P16750) (complex)”: the Kd turned out to be 2 nM.
